This is an account of results in patent publication US20200123499A1 (MIT, published 2020).

The assay has as its target T1, DPY-22 PQ-rich domain (C. elegans, UniProt Q20497 2142-3498, limits assumed).
T1 construct: domain: PQ-rich domain; Expressed in yeast from a Clontech two-hybrid bait or prey plasmid, so fused to a Gal4 BD or AD; also called C-terminal PQ-rich domain of DPY-22; MED12/DPY22
T1 sequence (looked up): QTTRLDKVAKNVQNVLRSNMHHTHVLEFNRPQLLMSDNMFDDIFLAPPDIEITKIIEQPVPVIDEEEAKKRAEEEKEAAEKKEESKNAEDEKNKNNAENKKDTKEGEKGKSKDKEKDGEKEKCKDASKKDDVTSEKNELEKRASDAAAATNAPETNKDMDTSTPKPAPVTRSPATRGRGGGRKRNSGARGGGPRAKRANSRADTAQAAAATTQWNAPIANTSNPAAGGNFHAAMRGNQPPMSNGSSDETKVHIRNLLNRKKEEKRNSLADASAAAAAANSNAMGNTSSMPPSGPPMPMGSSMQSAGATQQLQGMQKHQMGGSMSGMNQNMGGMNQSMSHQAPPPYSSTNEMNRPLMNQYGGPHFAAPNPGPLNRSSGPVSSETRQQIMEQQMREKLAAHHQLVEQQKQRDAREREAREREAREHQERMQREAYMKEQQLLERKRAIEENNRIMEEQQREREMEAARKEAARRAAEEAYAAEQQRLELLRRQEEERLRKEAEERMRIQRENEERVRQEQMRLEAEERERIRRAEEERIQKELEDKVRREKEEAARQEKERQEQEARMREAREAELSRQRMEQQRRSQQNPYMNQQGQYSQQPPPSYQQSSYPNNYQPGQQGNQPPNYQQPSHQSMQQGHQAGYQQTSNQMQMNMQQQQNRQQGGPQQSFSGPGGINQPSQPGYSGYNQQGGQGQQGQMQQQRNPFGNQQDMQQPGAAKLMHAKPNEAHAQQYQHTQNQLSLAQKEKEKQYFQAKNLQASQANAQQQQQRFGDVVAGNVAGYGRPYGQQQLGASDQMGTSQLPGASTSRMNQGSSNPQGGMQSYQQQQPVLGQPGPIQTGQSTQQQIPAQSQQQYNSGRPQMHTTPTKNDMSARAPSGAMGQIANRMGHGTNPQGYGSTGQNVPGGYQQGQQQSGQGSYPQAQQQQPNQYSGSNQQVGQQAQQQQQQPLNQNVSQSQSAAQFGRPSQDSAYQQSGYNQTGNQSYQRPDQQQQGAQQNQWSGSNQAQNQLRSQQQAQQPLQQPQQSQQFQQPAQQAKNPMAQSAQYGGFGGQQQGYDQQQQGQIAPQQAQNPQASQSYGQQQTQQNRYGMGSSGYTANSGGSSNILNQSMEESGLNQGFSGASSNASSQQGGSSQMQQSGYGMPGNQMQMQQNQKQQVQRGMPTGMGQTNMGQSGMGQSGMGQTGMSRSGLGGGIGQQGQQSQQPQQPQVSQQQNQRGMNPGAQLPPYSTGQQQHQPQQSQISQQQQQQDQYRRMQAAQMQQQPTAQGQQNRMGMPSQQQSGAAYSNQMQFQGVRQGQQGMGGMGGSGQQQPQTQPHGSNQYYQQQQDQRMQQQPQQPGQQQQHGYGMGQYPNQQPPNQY
As to the kind of experiment: yeast two-hybrid. Here is the method:
The yeast two-hybrid assay was performed following the manufacturer's protocol (Clontech). Briefly, fresh Yeast Gold colonies (<1 week old) were cultured in YPD liquid medium at 30° C. to the O.D.600 of 0.5, harvested, washed, and resuspended in 1.1×TE/LiAc. 100 ng of bait and prey plasmids were mixed with […] of denatured salmon sperm carrier DNA and were transformed into competent yeast cells in the presence of 1×PEG/LiAc. The cell mix was then plated on both -Leu-Trp and -Leu-Trp-His-Ade dropout plates and was allowed to grow and 30° C. for 2-3 days. Single colonies that grew on the double and quadruple dropout plates were resuspended in H2O and respotted to fresh dropout plates, which were grown at 30° C. for 2 days. Images of the respotted plates were captured using a Canon Powershot A590 digital camera (Canon) and processed by Photoshop CS4 software (Adobe).
Two let-19 alleles contain missense mutations, and all five of the dpy-22 alleles contain nonsense mutations that truncate the C-terminal PQ-rich domain (FIG. 3C). In vertebrates, Med12 interacts with transcription factors through the PQ-rich domain to promote gene expression and tissue development (37-41). To determine if Mediator might specifically promote I4 neurogenesis by interacting with bHLH proneural factors, we performed a yeast two-hybrid assay. […]

B1: HLH-3 (other)
chain: MTASTSSTPSTSTKIPSSSKSSVTKQTKQKRNERERKRVDQVNQGFVLLQERVPKAAGNKAKLSKVETLREAARYIQELQKQLGMSSTSFHNSMPADFPTPEQSPVYPQSVCSMMAQTPSPSYTSPYYPPPQMMSSNQHDMSSHYYQESSSSSASTSGDHHSFYSHTETY
notes: Yeast two-hybrid fusion (Gal4 BD or AD); also called ASCL1/HLH3; C. elegans homolog of Ascl1/Mash1
B1: the binding result is given as “no binding”.
